B1: 268A+411— Val (protein, UniProt P62694 18-513, looked up, variant R268A R411V)
Exoglucanase 1: QSACTLQSETHPPLTWQKCSSGGTCTQQTGSVVIDANWRWTHATNSSTNCYDGNTWSSTLCPDNETCAKNCCLDGAAYASTYGVTTSGNSLSIGFVTQSAQKNVGARLYLMASDTTYQEFTLLGNEFSFDVDVSQLPCGLNGALYFVSMDADGGVSKYPTNTAGAKYGTGYCDSQCPRDLKFINGQANVEGWEPSSNNANTGIGGHGSCCSEMDIWEANSISEALTPHPCTTVGQEICEGDGCGGTYSDNAYGGTCDPDGCDWNPYRLGNTSFYGPGSSFTLDTTKKLTVVTQFETSGAINRYYVQNGVTFQQPNAELGSYSGNELNDDYCTAEEAEFGGSSFSDKGGLTQFKKATSGGMVLVMSLWDDYYANMLWLDSTYPTNETSSTPGAVVGSCSTSSGVPAQVESQSPNAKVTFSNIKFGPIGSTGNPSGGNPPGGNRGTTTTRRPATTTGSSPGPTQSHYGQCGGIGYSGPTVCASGTTCQVLNPYYSQCL
B2: 268A+411— Gly (protein, UniProt P62694 18-513, looked up, variant R268A R411G)
Exoglucanase 1: QSACTLQSETHPPLTWQKCSSGGTCTQQTGSVVIDANWRWTHATNSSTNCYDGNTWSSTLCPDNETCAKNCCLDGAAYASTYGVTTSGNSLSIGFVTQSAQKNVGARLYLMASDTTYQEFTLLGNEFSFDVDVSQLPCGLNGALYFVSMDADGGVSKYPTNTAGAKYGTGYCDSQCPRDLKFINGQANVEGWEPSSNNANTGIGGHGSCCSEMDIWEANSISEALTPHPCTTVGQEICEGDGCGGTYSDNAYGGTCDPDGCDWNPYRLGNTSFYGPGSSFTLDTTKKLTVVTQFETSGAINRYYVQNGVTFQQPNAELGSYSGNELNDDYCTAEEAEFGGSSFSDKGGLTQFKKATSGGMVLVMSLWDDYYANMLWLDSTYPTNETSSTPGAVGGSCSTSSGVPAQVESQSPNAKVTFSNIKFGPIGSTGNPSGGNPPGGNRGTTTTRRPATTTGSSPGPTQSHYGQCGGIGYSGPTVCASGTTCQVLNPYYSQCL
B3: 268A+411— Glu (protein, UniProt P62694 18-513, looked up, variant R268A R411E)
Exoglucanase 1: QSACTLQSETHPPLTWQKCSSGGTCTQQTGSVVIDANWRWTHATNSSTNCYDGNTWSSTLCPDNETCAKNCCLDGAAYASTYGVTTSGNSLSIGFVTQSAQKNVGARLYLMASDTTYQEFTLLGNEFSFDVDVSQLPCGLNGALYFVSMDADGGVSKYPTNTAGAKYGTGYCDSQCPRDLKFINGQANVEGWEPSSNNANTGIGGHGSCCSEMDIWEANSISEALTPHPCTTVGQEICEGDGCGGTYSDNAYGGTCDPDGCDWNPYRLGNTSFYGPGSSFTLDTTKKLTVVTQFETSGAINRYYVQNGVTFQQPNAELGSYSGNELNDDYCTAEEAEFGGSSFSDKGGLTQFKKATSGGMVLVMSLWDDYYANMLWLDSTYPTNETSSTPGAVEGSCSTSSGVPAQVESQSPNAKVTFSNIKFGPIGSTGNPSGGNPPGGNRGTTTTRRPATTTGSSPGPTQSHYGQCGGIGYSGPTVCASGTTCQVLNPYYSQCL
B4: 268A+411— Trp (protein, UniProt P62694 18-513, looked up, variant R268A R411W)
Exoglucanase 1: QSACTLQSETHPPLTWQKCSSGGTCTQQTGSVVIDANWRWTHATNSSTNCYDGNTWSSTLCPDNETCAKNCCLDGAAYASTYGVTTSGNSLSIGFVTQSAQKNVGARLYLMASDTTYQEFTLLGNEFSFDVDVSQLPCGLNGALYFVSMDADGGVSKYPTNTAGAKYGTGYCDSQCPRDLKFINGQANVEGWEPSSNNANTGIGGHGSCCSEMDIWEANSISEALTPHPCTTVGQEICEGDGCGGTYSDNAYGGTCDPDGCDWNPYRLGNTSFYGPGSSFTLDTTKKLTVVTQFETSGAINRYYVQNGVTFQQPNAELGSYSGNELNDDYCTAEEAEFGGSSFSDKGGLTQFKKATSGGMVLVMSLWDDYYANMLWLDSTYPTNETSSTPGAVWGSCSTSSGVPAQVESQSPNAKVTFSNIKFGPIGSTGNPSGGNPPGGNRGTTTTRRPATTTGSSPGPTQSHYGQCGGIGYSGPTVCASGTTCQVLNPYYSQCL
B5: 411— Tyr (protein, UniProt P62694 18-513, looked up, variant R411Y)
Exoglucanase 1: QSACTLQSETHPPLTWQKCSSGGTCTQQTGSVVIDANWRWTHATNSSTNCYDGNTWSSTLCPDNETCAKNCCLDGAAYASTYGVTTSGNSLSIGFVTQSAQKNVGARLYLMASDTTYQEFTLLGNEFSFDVDVSQLPCGLNGALYFVSMDADGGVSKYPTNTAGAKYGTGYCDSQCPRDLKFINGQANVEGWEPSSNNANTGIGGHGSCCSEMDIWEANSISEALTPHPCTTVGQEICEGDGCGGTYSDNRYGGTCDPDGCDWNPYRLGNTSFYGPGSSFTLDTTKKLTVVTQFETSGAINRYYVQNGVTFQQPNAELGSYSGNELNDDYCTAEEAEFGGSSFSDKGGLTQFKKATSGGMVLVMSLWDDYYANMLWLDSTYPTNETSSTPGAVYGSCSTSSGVPAQVESQSPNAKVTFSNIKFGPIGSTGNPSGGNPPGGNRGTTTTRRPATTTGSSPGPTQSHYGQCGGIGYSGPTVCASGTTCQVLNPYYSQCL
B6: 268A+411— Met (protein, UniProt P62694 18-513, looked up, variant R268A R411M)
Exoglucanase 1: QSACTLQSETHPPLTWQKCSSGGTCTQQTGSVVIDANWRWTHATNSSTNCYDGNTWSSTLCPDNETCAKNCCLDGAAYASTYGVTTSGNSLSIGFVTQSAQKNVGARLYLMASDTTYQEFTLLGNEFSFDVDVSQLPCGLNGALYFVSMDADGGVSKYPTNTAGAKYGTGYCDSQCPRDLKFINGQANVEGWEPSSNNANTGIGGHGSCCSEMDIWEANSISEALTPHPCTTVGQEICEGDGCGGTYSDNAYGGTCDPDGCDWNPYRLGNTSFYGPGSSFTLDTTKKLTVVTQFETSGAINRYYVQNGVTFQQPNAELGSYSGNELNDDYCTAEEAEFGGSSFSDKGGLTQFKKATSGGMVLVMSLWDDYYANMLWLDSTYPTNETSSTPGAVMGSCSTSSGVPAQVESQSPNAKVTFSNIKFGPIGSTGNPSGGNPPGGNRGTTTTRRPATTTGSSPGPTQSHYGQCGGIGYSGPTVCASGTTCQVLNPYYSQCL
B7: 268A+411— Cys (protein, UniProt P62694 18-513, looked up, variant R268A R411C)
Exoglucanase 1: QSACTLQSETHPPLTWQKCSSGGTCTQQTGSVVIDANWRWTHATNSSTNCYDGNTWSSTLCPDNETCAKNCCLDGAAYASTYGVTTSGNSLSIGFVTQSAQKNVGARLYLMASDTTYQEFTLLGNEFSFDVDVSQLPCGLNGALYFVSMDADGGVSKYPTNTAGAKYGTGYCDSQCPRDLKFINGQANVEGWEPSSNNANTGIGGHGSCCSEMDIWEANSISEALTPHPCTTVGQEICEGDGCGGTYSDNAYGGTCDPDGCDWNPYRLGNTSFYGPGSSFTLDTTKKLTVVTQFETSGAINRYYVQNGVTFQQPNAELGSYSGNELNDDYCTAEEAEFGGSSFSDKGGLTQFKKATSGGMVLVMSLWDDYYANMLWLDSTYPTNETSSTPGAVCGSCSTSSGVPAQVESQSPNAKVTFSNIKFGPIGSTGNPSGGNPPGGNRGTTTTRRPATTTGSSPGPTQSHYGQCGGIGYSGPTVCASGTTCQVLNPYYSQCL
B8: 268A+411— Asp (protein, UniProt P62694 18-513, looked up, variant R268A R411D)
Exoglucanase 1: QSACTLQSETHPPLTWQKCSSGGTCTQQTGSVVIDANWRWTHATNSSTNCYDGNTWSSTLCPDNETCAKNCCLDGAAYASTYGVTTSGNSLSIGFVTQSAQKNVGARLYLMASDTTYQEFTLLGNEFSFDVDVSQLPCGLNGALYFVSMDADGGVSKYPTNTAGAKYGTGYCDSQCPRDLKFINGQANVEGWEPSSNNANTGIGGHGSCCSEMDIWEANSISEALTPHPCTTVGQEICEGDGCGGTYSDNAYGGTCDPDGCDWNPYRLGNTSFYGPGSSFTLDTTKKLTVVTQFETSGAINRYYVQNGVTFQQPNAELGSYSGNELNDDYCTAEEAEFGGSSFSDKGGLTQFKKATSGGMVLVMSLWDDYYANMLWLDSTYPTNETSSTPGAVDGSCSTSSGVPAQVESQSPNAKVTFSNIKFGPIGSTGNPSGGNPPGGNRGTTTTRRPATTTGSSPGPTQSHYGQCGGIGYSGPTVCASGTTCQVLNPYYSQCL

How the values were obtained:
[1] = 4-MUL assay, specific activity (Example 2); format: biochemical; conditions: primary screening; 10 μL enzyme; n=1
Protocol: CBH I activity on was measured using the 4-MUL assay using gluconolactone to inhibit any BG activity. The fluorogenic 4-MUL substrate (SIGMA) was prepared at 100 mM concentration in DMSO. Assays were run in black 96-well-flat-bottomed plates (Costar) and 4-MU fluorescence was read on a BioTek H4 plate reader (ex/em 365/450 nm). Assay plates were filled with buffer (final concentrations of 100 mM MES, pH 6, 25 mM gluconolactone, with or without cellobiose; cellobiose concentrations are listed with appropriate data sets), to which enzyme mixture was added (10-30 μl, 5 μg/mL final) and then assays were initiated by addition of 4-MUL (0.5 mM final concentration in 100 μl total volume). Enzyme mixtures were either CBH I variants from harvested supernatants or standards. Standards included: a negative control, consisting of harvested supernatant from the CBH I knock-out strain; a positive control, consisting of wild-type CBH I from harvested supernatants; and, a commercial CBH I standard (E-CBHI from Megazymes). Activity standards were run by serial dilution of commercial CBH I from 40 to 0.02 μg/mL and 4-MU (SIGMA, prepared at 20 mM in DMSO) (in dilution increments of 2-fold; all dilutions were made using harvested supernatant from the knock-out control). Kinetic rates were monitored over the first 15 mins following 4-MUL addition; initial rates were calculated based on data in the linear range. After 1 hr, a final endpoint read was taken, both before and after reaction quenching (100 μL of 200 mM Sodium Carbonate, pH 10.0). Activity was calculated for kinetic and endpoint reads; background resulting from the CBH I knock-out supernatant remained negligible. 4MU standard curves and HPLC quantification values were used to calculate specific activity.
The specific activity (SA) of the variant library was evaluated in a secondary 4-MUL assay. […] On average, a mutation at position 268 increases the specific activity by 2.5 fold over that of wild type. A mutation at 268 in combination with 411 is around 1.5-1.6 fold higher than wild-type, on average.

[2] = 4-MUL cellobiose tolerance/inhibition assay, dose-response IC50 (Example 2); format: biochemical; conditions: primary screening, n=1; for Tolerance at 1 mM CB (MUL Data): 1 mM cellobiose; for IC50: 10 μL enzyme, cellobiose range 0.0001-100 mM, read-out: IC50 (MUL Data)
Outline: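 IC50 reflects cellobiose concentration halving activity, fitted by four-parameter dose-response with zero activity fixed at knockout-strain background. Assays used 4-MUL (0.5 mM) with enzyme at 5 μg/mL or less, pH 6 MES, 25 mM gluconolactone blocking BG, cellobiose up to 100 mM; 4-MU fluorescence read.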

Row | Molecule | SA (μmol 4 MU/min/mg) (MUL Data) [1] | Tolerance at 1 mM CB (MUL Data) [2] [%] | IC50 [2] [mM]
1 | B1 | 1.39 | 102 | 15.1
2 | B2 | 0.88 | 91 | 12.1
3 | B3 | 0.74 | 95 | 16.9
4 | B4 | 3.07 | 97 | 28.4
5 | B5 | 0.67 | 85 | 5.4
6 | B6 | 0.87 | 97 | 11.5
7 | B7 | 1.58 | 85 | 7.66
8 | B8 | 2.12 | 93 | 10.2

— patent US20140287471A1, “VARIANT CBH I POLYPEPTIDES WITH REDUCED PRODUCT INHIBITION” (BP CORPORATION NORTN AMERICA INC., priority 2011, published 2014)
